According to US20260152567A1 (CSPC MEGALITH BIOPHARMACEUTICAL, published 2026):

T1: human CD73 on the cell surface (MDA-MB-231 and SKOV3 tumor cells) (human, UniProt P21589 27-549)
T1 construct: whole, on cells; also called cell surface CD73; CD73 on the surface of human tumor cells
T1 sequence (looked up): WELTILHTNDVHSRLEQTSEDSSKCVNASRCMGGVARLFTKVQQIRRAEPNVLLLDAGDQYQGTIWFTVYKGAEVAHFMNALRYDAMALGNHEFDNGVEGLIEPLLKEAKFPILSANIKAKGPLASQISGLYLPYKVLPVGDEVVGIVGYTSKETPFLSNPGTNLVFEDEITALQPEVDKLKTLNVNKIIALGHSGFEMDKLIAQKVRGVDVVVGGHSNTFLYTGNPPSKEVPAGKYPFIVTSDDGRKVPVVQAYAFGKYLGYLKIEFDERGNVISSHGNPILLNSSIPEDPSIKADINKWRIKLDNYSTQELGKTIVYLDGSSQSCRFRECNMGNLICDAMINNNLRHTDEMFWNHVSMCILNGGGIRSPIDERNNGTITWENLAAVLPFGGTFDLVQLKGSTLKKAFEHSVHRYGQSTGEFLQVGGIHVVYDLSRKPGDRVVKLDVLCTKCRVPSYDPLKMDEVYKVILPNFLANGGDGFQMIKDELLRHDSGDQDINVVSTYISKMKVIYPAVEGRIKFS

T2: N-terminal portion of the CD73 protein (Homo sapiens (Human), UniProt P21589 27-317, limits assumed)
T2 construct: also called CD73 N-terminal protein; N-terminus of the CD73 protein
T2 sequence: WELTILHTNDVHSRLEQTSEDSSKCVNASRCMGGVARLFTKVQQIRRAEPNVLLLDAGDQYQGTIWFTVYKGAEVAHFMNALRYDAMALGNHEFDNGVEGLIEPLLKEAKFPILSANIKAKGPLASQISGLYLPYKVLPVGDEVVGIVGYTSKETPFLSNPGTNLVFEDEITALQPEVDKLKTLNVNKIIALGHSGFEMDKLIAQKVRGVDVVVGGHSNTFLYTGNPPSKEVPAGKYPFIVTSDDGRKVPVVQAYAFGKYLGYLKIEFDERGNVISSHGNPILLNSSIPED

T3: cynomolgus monkey CD73 protein (cynomolgus monkey, UniProt A0A2K5V5U7 27-547)
T3 construct: construct not described
T3 sequence: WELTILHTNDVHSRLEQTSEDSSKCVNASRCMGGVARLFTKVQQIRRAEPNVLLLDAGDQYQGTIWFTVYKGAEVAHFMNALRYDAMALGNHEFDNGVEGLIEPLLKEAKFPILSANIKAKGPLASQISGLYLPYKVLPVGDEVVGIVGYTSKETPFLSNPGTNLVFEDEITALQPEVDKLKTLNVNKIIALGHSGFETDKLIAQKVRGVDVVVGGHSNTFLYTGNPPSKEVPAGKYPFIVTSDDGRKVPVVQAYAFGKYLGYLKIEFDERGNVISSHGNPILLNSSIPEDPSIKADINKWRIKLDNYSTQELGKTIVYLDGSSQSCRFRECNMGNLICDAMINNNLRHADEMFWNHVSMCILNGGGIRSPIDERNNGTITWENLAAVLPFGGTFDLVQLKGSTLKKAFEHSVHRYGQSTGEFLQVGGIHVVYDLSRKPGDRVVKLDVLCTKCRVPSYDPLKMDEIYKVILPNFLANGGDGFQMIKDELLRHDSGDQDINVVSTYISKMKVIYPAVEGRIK

B1: Hab7C3C2.5 (antibody, human IgG1, kappa, L234A L235A, V domains shown)
VH: QVQLVQSGAEVKKPGASVKVSCKASGYTFTSYDINWVRQATGQGLEWIGWIYPRDGFTKYNEKFKGRVTLTVNTSISTAYMELSSLRSEDTAVYYCARKEGYRGDWYFDVWGQGTTVTVSS
VL: DIQMTQSPSSLSASVGDRVTITCRASGNVHNYLAWYQQKPGKAPKLLLYNAKTLASGVPSRFSGSGSGTDYTLTISSLQPEDFATYYCQHFWSTPWTFGGGTELEIKR
notes: Humanized 7C3C2; also called Hab7C3C.5
B2: Hab1F2F9.15 (antibody, human IgG1, kappa, L234A L235A, V domains shown)
VH: QVQLVQSGAEVKKPGASVKVSCKASGYTFTSYWMHWVRQAPGQRLEWMGNINPSNGGTKYSQKFQGRVTITVDTSASTAYMELSSLRSEDTAVYYCARRDYGSPSYWGQGTTVTVSS
VL: DIQMTQSPSSLSASVGDRVTITCKASQDINSYLTWFQQKPGKAPKSLIYRTNILLDGVPSRFSGSGSGTDYTLTISSLQPEDFATYYCLQYHEFPVTFGGGTKLEIKR
notes: Humanized 1F2F9; also called Huab1F2F9.15; HuablF2F9.15

Experiments:
[1] = target: T1, human CD73 on the cell surface …; assay: flow cytometry on MDA-MB-231 cells
Protocol: In this example, the exemplary antibodies of the present application were compared with anti-CD73 antibodies described in other patent applications. Antibodies MEDI9447 and Hu101-28 (with CDR sequences from PCT patent applications WO 2016/075099 and WO 2018/137598, respectively) were cloned into eukaryotic expression vectors containing the hIgG1-kappa constant region. The binding ability of the humanized antibodies Hab7C3C2.5 and Hab1F2F9.15 to cell surface CD73 was assessed using tumor cell lines MDA-MB-231 and SKOV3 which endogenously express human CD73 on the cell surface. The cells were seeded in a 96-well plate at a density of 2×10⁶ cells/mL, with 100 μL per well. 4-fold gradient dilutions (0-100 nM) of the antibodies were added, and the mixture was incubated at 4° C. for 1 h. A goat anti-human secondary antibody was added, and the mixture was incubated at 4° C. in the dark for 50 min for labeling. The fluorescence intensity of the cells was then measured by a flow cytometer.

[2] = target: T2, N-terminal portion of the CD73 protein; assay: ELISA, plate coated with CD73 N-terminal protein at 1 µg/mL
Protocol: In this example, the C-terminal portion (SEQ ID NO. 41) and the N-terminal portion (SEQ ID NO. 42) of the CD73 protein were separately constructed, and the epitopes recognized by the antibodies were detected by ELISA method. Elisa plates were respectively coated with the CD73 N-terminal and C-terminal proteins at a concentration of 1 μg/mL. The test antibodies were diluted in a gradient.

[3] = target: T3, cynomolgus monkey CD73 protein; assay: BLI (Fortebio), cynomolgus CD73 on HIS1K biosensors, antibody as analyte
Protocol: In this example, the cross-binding ability of the exemplary humanized anti-CD73 antibodies of the present application to cynomolgus monkey CD73 was assayed by a Fortebio experiment. The specific implementation steps included immobilizing the cynomolgus monkey CD73 protein onto HIS1K biosensors. […] The times for the ligand-analyte binding and dissociation were 120 s and 300 s, respectively. The data of the antigen-antibody affinity were calculated by regression according to the binding curves using an analysis software.

Binder | EC50 [1] [nM] | binding result [2] | Kd [3] [nM] | koff [3] [s⁻¹] | kon [3] [M⁻¹ s⁻¹]
B1 | 0.41 | no binding | 0.732 | 0.00299 | 4.08e+06
B2 | 0.48 | no binding | 0.814 | 0.0017 | 2.09e+06
